Measurements: the RNAGym collection of RNA variant scans (doi:10.7554/elife.80360)

B1: Hammerhead Ribozyme (parent)
chain: ACCGGAUGUGCUUUCCGGUCUGAUGAGUCCGUGAGGACGAAACAG

Variants of: B1
Assay: self-cleavage, relative activity (ratio to wild type); higher = more cleavage; co-transcriptional

Question: With ACCGGAUGUGCUUUACAGUCUGAUGAGUCCGUGAGGACGAAACAG [C15A G17A] as the variant, how does the self-cleavage read?
Answer: 0.351

Question: For ACCGGAUGUGCUUUACUGUCUGAUGAGUCCGUGAGGACGAAACAG [C15A G17U], which self-cleavage is on record?
Answer: 0.374

Question: For ACCGGAUGUGCUUUACCGUCUGAUGAGUCCGUGAGGACGAAACAG [C15A G17C], which self-cleavage is on record?
Answer: 0.328

Question: Which self-cleavage does the source give for ACCGGAUGUGCUUGCCGGUCUGAUGAGUCCGUGAAGACGAAACAG [U14G G35A] here?
Answer: 0.725

Question: With ACCGGAUGUGCUUGCCGGUCUGAUGAGUCCGUGACGACGAAACAG [U14G G35C] as the variant, how does the self-cleavage read?
Answer: 0.509

Question: For ACCGGAUGUGCUUGCCGGUCUGAUGAGUCCGUGAUGACGAAACAG [U14G G35U], which self-cleavage is on record?
Answer: 0.611

Question: For ACCGGAUGUGCUUUACGGUCCGAUGAGUCCGUGAGGACGAAACAG [C15A U21C], which self-cleavage is on record?
Answer: 0.373

Question: With ACCGGAUGUGCUUUACGGUCGGAUGAGUCCGUGAGGACGAAACAG [C15A U21G] as the variant, how does the self-cleavage read?
Answer: 0.404

Question: With ACCGGAUGUGCUUUACGGUCAGAUGAGUCCGUGAGGACGAAACAG [C15A U21A] as the variant, how does the self-cleavage read?
Answer: 0.415

Question: Which self-cleavage does the source give for ACCGGAUGUGCUUUACGGUCUGAUGAGUCCGUGAUGACGAAACAG [C15A G35U] here?
Answer: 0.583

Question: For ACCGGAUGUGCUUUACGGUCUGAUGAGUCCGUGAAGACGAAACAG [C15A G35A], which self-cleavage is on record?
Answer: 0.453

Question: For ACCGGAUGUGCUUUACGGUCUGAUGAGUCCGUGACGACGAAACAG [C15A G35C], which self-cleavage is on record?
Answer: 0.509

Question: Which self-cleavage does the source give for ACCGGAUGUGCUUGCCGGUCUGAUGAGUCCGUGAGGACUAAACAG [U14G G39U] here?
Answer: 0.359

Question: With ACCGGAUGUGCUUGCCGGUCUGAUGAGUCCGUGAGGACCAAACAG [U14G G39C] as the variant, how does the self-cleavage read?
Answer: 0.41

Question: For ACCGGAUGUGCUUGCCGGUCUGAUGAGUCCGUGAGGACAAAACAG [U14G G39A], which self-cleavage is on record?
Answer: 0.305

Question: With ACCGGAUGUGCUUUACGGUCUGAUGCGUCCGUGAGGACGAAACAG [C15A A26C] as the variant, how does the self-cleavage read?
Answer: 0.437

Question: Which self-cleavage does the source give for ACCGGAUGUGCUUUACGGUCUGAUGGGUCCGUGAGGACGAAACAG [C15A A26G] here?
Answer: 0.248

Question: Which self-cleavage does the source give for ACCGGAUGUGCUUUACGGUCUGAUGUGUCCGUGAGGACGAAACAG [C15A A26U] here?
Answer: 0.446

Question: For ACCGGAUGUGCUUUACGGUCUGCUGAGUCCGUGAGGACGAAACAG [C15A A23C], which self-cleavage is on record?
Answer: 0.307

Question: For ACCGGAUGUGCUUUACGGUCUGUUGAGUCCGUGAGGACGAAACAG [C15A A23U], which self-cleavage is on record?
Answer: 0.276

Question: For ACCGGAUGUGCUUUACGGUCUGGUGAGUCCGUGAGGACGAAACAG [C15A A23G], which self-cleavage is on record?
Answer: 0.428

Question: For ACCGGAUGUGCUUUACGGUCUGAUGAGUCCGUGAGGACGAGACAG [C15A A41G], which self-cleavage is on record?
Answer: 0.325

Question: For ACCGGAUGUGCUUUACGGUCUGAUGAGUCCGUGAGGACGAUACAG [C15A A41U], which self-cleavage is on record?
Answer: 0.287

Question: For ACCGGAUGUGCUUUACGGUCUGAUGAGUCCGUGAGGACGACACAG [C15A A41C], which self-cleavage is on record?
Answer: 0.338

Question: For ACCGGAUGUGCUUUACGGUCUGAUGAGUCCGUGAGGACGAAACAC [C15A G45C], which self-cleavage is on record?
Answer: 0.44

Question: With ACCGGAUGUGCUUUACGGUCUGAUGAGUCCGUGAGGACGAAACAU [C15A G45U] as the variant, how does the self-cleavage read?
Answer: 0.467

Question: For ACCGGAUGUGCUUUACGGUCUGAUGAGUCCGUGAGGACGAAACAA [C15A G45A], which self-cleavage is on record?
Answer: 0.498

Question: With ACCGGAUGUGCUUUACGGUCUGAUGAGUCCGUGAGGUCGAAACAG [C15A A37U] as the variant, how does the self-cleavage read?
Answer: 0.434

Question: For ACCGGAUGUGCUUUACGGUCUGAUGAGUCCGUGAGGGCGAAACAG [C15A A37G], which self-cleavage is on record?
Answer: 0.895

Question: Which self-cleavage does the source give for ACCGGAUGUGCUUUACGGUCUGAUGAGUCCGUGAGGCCGAAACAG [C15A A37C] here?
Answer: 0.403

Question: With ACCGGAUGUGCUUGCCGGUCUGAUGAGUCCUUGAGGACGAAACAG [U14G G31U] as the variant, how does the self-cleavage read?
Answer: 0.51

Question: For ACCGGAUGUGCUUGCCGGUCUGAUGAGUCCCUGAGGACGAAACAG [U14G G31C], which self-cleavage is on record?
Answer: 0.967

Question: With ACCGGAUGUGCUUUACGGUCUGAUGAGUCCGUGAGGAGGAAACAG [C15A C38G] as the variant, how does the self-cleavage read?
Answer: 0.515

Question: Which self-cleavage does the source give for ACCGGAUGUGCUUUACGGUCUGAUGAGUCCGUGAGGAAGAAACAG [C15A C38A] here?
Answer: 0.501

Question: For ACCGGAUGUGCUUUACGGUCUGAUGAGUCCGUGAGGAUGAAACAG [C15A C38U], which self-cleavage is on record?
Answer: 0.814

Question: For ACCGGAUGUGCUUGCCGGGCUGAUGAGUCCGUGAGGACGAAACAG [U14G U19G], which self-cleavage is on record?
Answer: 0.422

Question: With ACCGGAUGUGCUUGCCGGACUGAUGAGUCCGUGAGGACGAAACAG [U14G U19A] as the variant, how does the self-cleavage read?
Answer: 0.383

Question: Which self-cleavage does the source give for ACCGGAUGUGCUUGCCGGCCUGAUGAGUCCGUGAGGACGAAACAG [U14G U19C] here?
Answer: 0.715

Question: With ACCGGAUGUGCUUUAAGGUCUGAUGAGUCCGUGAGGACGAAACAG [C15A C16A] as the variant, how does the self-cleavage read?
Answer: 0.869

Question: For ACCGGAUGUGCUUUAUGGUCUGAUGAGUCCGUGAGGACGAAACAG [C15A C16U], which self-cleavage is on record?
Answer: 0.647

Question: For ACCGGAUGUGCUUUAGGGUCUGAUGAGUCCGUGAGGACGAAACAG [C15A C16G], which self-cleavage is on record?
Answer: 0.521

Question: Which self-cleavage does the source give for ACCGGAUGUGCUUGCCGGUCGGAUGAGUCCGUGAGGACGAAACAG [U14G U21G] here?
Answer: 0.572

Question: Which self-cleavage does the source give for ACCGGAUGUGCUUGCCGGUCCGAUGAGUCCGUGAGGACGAAACAG [U14G U21C] here?
Answer: 0.812

Question: For ACCGGAUGUGCUUGCCGGUCAGAUGAGUCCGUGAGGACGAAACAG [U14G U21A], which self-cleavage is on record?
Answer: 0.741

Question: For ACCGGAUGUGCUUUACGUUCUGAUGAGUCCGUGAGGACGAAACAG [C15A G18U], which self-cleavage is on record?
Answer: 0.33

Question: Which self-cleavage does the source give for ACCGGAUGUGCUUUACGCUCUGAUGAGUCCGUGAGGACGAAACAG [C15A G18C] here?
Answer: 0.364

Question: For ACCGGAUGUGCUUUACGAUCUGAUGAGUCCGUGAGGACGAAACAG [C15A G18A], which self-cleavage is on record?
Answer: 0.323

Question: For ACCGGAUGUGCUUGCCGGUCUGAAGAGUCCGUGAGGACGAAACAG [U14G U24A], which self-cleavage is on record?
Answer: 1.03

Question: With ACCGGAUGUGCUUGCCGGUCUGACGAGUCCGUGAGGACGAAACAG [U14G U24C] as the variant, how does the self-cleavage read?
Answer: 0.611

Question: For ACCGGAUGUGCUUGCCGGUCUGAGGAGUCCGUGAGGACGAAACAG [U14G U24G], which self-cleavage is on record?
Answer: 0.575

Question: Which self-cleavage does the source give for ACCGGAUGUGCUUUACGGUCUGAUGAGUCCAUGAGGACGAAACAG [C15A G31A] here?
Answer: 1.05

Question: With ACCGGAUGUGCUUUACGGUCUGAUGAGUCCUUGAGGACGAAACAG [C15A G31U] as the variant, how does the self-cleavage read?
Answer: 0.999

Question: Which self-cleavage does the source give for ACCGGAUGUGCUUUACGGUCUGAUGAGUCCCUGAGGACGAAACAG [C15A G31C] here?
Answer: 0.807

Question: For ACCGGAUGUGCUUUACGGUCUGAUGAGUCCGUGAGGACGAAGCAG [C15A A42G], which self-cleavage is on record?
Answer: 0.264

Question: Which self-cleavage does the source give for ACCGGAUGUGCUUUACGGUCUGAUGAGUCCGUGAGGACGAAUCAG [C15A A42U] here?
Answer: 0.282

Question: Which self-cleavage does the source give for ACCGGAUGUGCUUUACGGUCUGAUGAGUCCGUGAGGACGAACCAG [C15A A42C] here?
Answer: 0.291

Question: For ACCGGAUGUGCUUUACGGUCUGAUUAGUCCGUGAGGACGAAACAG [C15A G25U], which self-cleavage is on record?
Answer: 0.339
